Laboratory results reported in patent US20160376363A1 (ALDER BIOPHARMACEUTICALS, published 2016).

Columns and labels:
human PACAP27 = target: T1, human PACAP27 (human, C-terminal leucine is amidated; 125I-labelled in Example 10); test: SPR (ProteOn XPR36), antibody amine-coupled to chip, peptide as analyte, 1:1 Langmuir fit
T1 construct: also called 125I-labelled PACAP27
T1 peptide: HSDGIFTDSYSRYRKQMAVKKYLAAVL

human PACAP38 = target: T2, human PACAP38 (human, C-terminal lysine is amidated; N-terminally or C-terminally biotinylated in the HTRF and cell binding assays); test: as above
T2 construct: Synthetic peptide (American Peptide; biotinylated forms from AnaSpec); also called PACAP 1-38; wild-type PACAP peptide (1-38)
T2 peptide: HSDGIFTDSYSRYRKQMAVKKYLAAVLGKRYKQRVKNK

Kd (human PACAP27): 0.013 nM
koff (human PACAP27): 1e-05 s⁻¹
Kd (human PACAP38): 0.027 nM
koff (human PACAP38): 1e-05 s⁻¹
B1: Ab21 (antibody, V domains shown)
VH: QSVEESGGRLVTPGTPLTLTCTVSGIDLSSYYMTWVRQAPGKGLEWVGFIDAGGSAYYATWAKGRFTISKASTTVDLKITSPTTEDTATYFCARDLDLWGPGTLVTVSS
VL: AAVLTQTPSPVSAAVGGTVSISCKSSESVYGDYLAWFQQKPGQPPKQLIYDASTLASGVPSRFKGSGSGTQFTLTISGVQCDDAATYYCAGGYVSAGVAFGGGTEVVVKR
